Results published in patent US8003596B2, “P-selectin targeting ligand and compositions thereof” (Astellas Pharma Inc., priority 2003, dated 2011).
One block for each molecule: values may come before it. Where no end group is shown, it is not given here.

Key:
human P-selectin/IgG-Fc = molecular target: T1, human P-selectin/IgG-Fc (Homo sapiens, UniProt P16109); experiment: Competition assay: displacement of TM11-PO complex from immobilised human P-selectin/IgG-Fc; format: binding; details: competition with TM11-PO; free peptide; read-out: IC50 (affinity for P-selectin)
T1 construct: purchased R&D Systems Europe Ltd., Abingdon, United Kingdom
Description: (§1) TM11-PO, a tetrameric TM11/strepPO complex described by Molenaar et al. (Blood 100: 3570-3577 (2002)), was freshly prepared by incubating streptavidin-peroxidase (Amersham Life Science, Little Chalfont, United Kingdom) (strep-PO; 8.4 μl, 2.0 μM) and biotin-CDVEWVDVSSLEWDLPC (SEQ ID NO: 2; synthesized by Dr. Vander Zee, Department of Immunology, University of Utrecht, Utrecht, the Netherlands) (TM11-biotin; 1.5 μl 190 mM) for 2 hours at room temperature in assay buffer (20 mM HEPES, 150 mM NaCl, 1 mM CaCl2, pH 7.4). For competition studies, a 96 wells microtiter plate (high binding, flat bottom, Costar, Corning, U.S.A) was coated overnight at 4° C. with 10 μg/ml goat anti-human IgG (Sigma-Aldrich, Zwijndrecht, the Netherlands) in coating buffer (50 mM NaHCO3, pH 9.6). Subsequently, wells were washed with assay buffer and incubated for 1 hour at 37° C. with blocking buffer (3% BSA in assay buffer). After washing with assay buffer the wells were incubated for 2 hours at 37° C. with human P-selectin/IgG-Fc (R&D Systems Europe Ltd., Abingdon, United Kingdom) (0.3 μg/ml). Subsequently, wells were washed with assay buffer and incubated for 1 hour at 4° C. with the TM11-PO complex. The wells were washed six times with washing buffer (0.1% Tween 20 in assay buffer). […] The reaction was halted by addition of 2 M H2SO4 and the absorbance was measured at 450 nm.

[1] = molecular target: T2, human P-selectin/IgG-Fc (R&D Systems) (human, UniProt P16109 42-771); experiment: competition ELISA against TM11-PO on captured human P-selectin/IgG-Fc
T2 construct: It was captured on plates coated with goat anti-human IgG; not shown: IgG Fc; it was captured by goat anti-human IgG
T2 sequence (looked up): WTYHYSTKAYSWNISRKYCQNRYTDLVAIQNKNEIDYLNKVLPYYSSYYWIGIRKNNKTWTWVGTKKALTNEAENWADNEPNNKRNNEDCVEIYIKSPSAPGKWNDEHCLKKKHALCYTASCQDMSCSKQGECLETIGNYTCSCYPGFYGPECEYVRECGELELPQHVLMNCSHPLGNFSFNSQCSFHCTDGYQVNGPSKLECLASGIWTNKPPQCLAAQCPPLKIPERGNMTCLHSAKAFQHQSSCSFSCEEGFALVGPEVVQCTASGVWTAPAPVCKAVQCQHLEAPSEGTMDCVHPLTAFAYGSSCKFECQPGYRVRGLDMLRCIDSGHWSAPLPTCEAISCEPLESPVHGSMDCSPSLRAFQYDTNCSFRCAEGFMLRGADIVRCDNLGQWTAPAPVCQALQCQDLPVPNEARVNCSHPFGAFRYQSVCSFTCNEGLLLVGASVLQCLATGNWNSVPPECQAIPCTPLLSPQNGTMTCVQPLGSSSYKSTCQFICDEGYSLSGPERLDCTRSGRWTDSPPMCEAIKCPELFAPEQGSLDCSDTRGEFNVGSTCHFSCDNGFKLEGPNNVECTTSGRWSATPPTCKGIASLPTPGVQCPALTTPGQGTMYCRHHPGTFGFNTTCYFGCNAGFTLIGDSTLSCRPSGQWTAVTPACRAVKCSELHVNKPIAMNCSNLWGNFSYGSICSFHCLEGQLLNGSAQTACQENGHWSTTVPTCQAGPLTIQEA
Description: as §1, with “The affinity of the liposomal drug delivery system prepared in example 2 was evaluated using a competition assay. TM11-PO,” for “TM11-PO,”, “biotin-[…]” for “biotin-CDVEWVDVSSLEWDLPC”, “CaCl_2,” for “CaCl2,”, “NaHCO_3,” for “NaHCO3,”, “complex.” for “complex. The wells were washed six times with washing buffer (0.1% Tween 20 in assay buffer).”, “H_2SO_4” for “H2SO4”

[2] = molecular target: T3, human P-selectin on CHO cells stably transfected with human P-selectin (CHO-P cells) (human, UniProt P16109 42-830); experiment: cell-based or functional assay
T3 sequence (looked up): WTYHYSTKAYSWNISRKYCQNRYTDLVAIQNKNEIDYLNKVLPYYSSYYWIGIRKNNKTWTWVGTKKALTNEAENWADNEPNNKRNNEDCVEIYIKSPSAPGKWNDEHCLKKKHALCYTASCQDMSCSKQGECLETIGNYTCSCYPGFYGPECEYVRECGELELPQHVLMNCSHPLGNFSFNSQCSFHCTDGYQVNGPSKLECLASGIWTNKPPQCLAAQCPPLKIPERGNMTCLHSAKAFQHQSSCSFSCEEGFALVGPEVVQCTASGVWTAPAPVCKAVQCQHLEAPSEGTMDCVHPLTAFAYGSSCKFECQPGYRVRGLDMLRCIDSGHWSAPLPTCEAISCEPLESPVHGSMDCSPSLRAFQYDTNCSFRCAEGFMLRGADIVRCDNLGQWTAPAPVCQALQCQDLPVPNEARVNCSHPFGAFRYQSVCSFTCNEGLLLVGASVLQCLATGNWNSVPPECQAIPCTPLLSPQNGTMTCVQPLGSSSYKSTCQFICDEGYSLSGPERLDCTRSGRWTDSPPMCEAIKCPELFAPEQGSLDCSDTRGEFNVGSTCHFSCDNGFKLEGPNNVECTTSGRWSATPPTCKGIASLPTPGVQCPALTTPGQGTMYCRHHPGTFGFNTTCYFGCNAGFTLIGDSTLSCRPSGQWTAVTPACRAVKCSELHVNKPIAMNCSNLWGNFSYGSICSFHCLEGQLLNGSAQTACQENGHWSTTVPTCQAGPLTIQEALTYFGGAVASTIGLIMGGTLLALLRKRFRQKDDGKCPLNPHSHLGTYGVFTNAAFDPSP

[3] = molecular target: T4, human P-selectin/IgG-Fc (R&D Systems) (human), P16109; experiment: competition ELISA against TM11-PO on captured human P-selectin/IgG-Fc
T4 chain: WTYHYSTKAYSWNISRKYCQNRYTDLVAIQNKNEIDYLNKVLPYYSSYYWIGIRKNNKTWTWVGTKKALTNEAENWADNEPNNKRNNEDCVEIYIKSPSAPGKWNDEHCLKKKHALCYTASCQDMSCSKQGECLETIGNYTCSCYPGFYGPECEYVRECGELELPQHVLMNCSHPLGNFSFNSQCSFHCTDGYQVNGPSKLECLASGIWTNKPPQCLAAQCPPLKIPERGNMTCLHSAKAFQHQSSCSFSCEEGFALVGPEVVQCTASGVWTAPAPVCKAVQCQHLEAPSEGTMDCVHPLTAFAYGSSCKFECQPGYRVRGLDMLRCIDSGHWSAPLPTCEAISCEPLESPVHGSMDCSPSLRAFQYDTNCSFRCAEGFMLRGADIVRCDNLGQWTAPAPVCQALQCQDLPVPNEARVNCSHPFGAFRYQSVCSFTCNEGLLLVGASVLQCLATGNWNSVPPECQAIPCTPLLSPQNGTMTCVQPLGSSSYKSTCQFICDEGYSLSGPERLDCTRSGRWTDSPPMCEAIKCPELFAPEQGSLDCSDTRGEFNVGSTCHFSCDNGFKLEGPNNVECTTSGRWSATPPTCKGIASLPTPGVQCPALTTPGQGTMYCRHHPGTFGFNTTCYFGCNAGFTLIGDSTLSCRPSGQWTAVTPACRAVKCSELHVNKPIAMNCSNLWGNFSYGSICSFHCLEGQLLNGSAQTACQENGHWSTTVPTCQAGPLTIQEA

T1 sequence (P16109 with tags, fused parts or gaps limits assumed): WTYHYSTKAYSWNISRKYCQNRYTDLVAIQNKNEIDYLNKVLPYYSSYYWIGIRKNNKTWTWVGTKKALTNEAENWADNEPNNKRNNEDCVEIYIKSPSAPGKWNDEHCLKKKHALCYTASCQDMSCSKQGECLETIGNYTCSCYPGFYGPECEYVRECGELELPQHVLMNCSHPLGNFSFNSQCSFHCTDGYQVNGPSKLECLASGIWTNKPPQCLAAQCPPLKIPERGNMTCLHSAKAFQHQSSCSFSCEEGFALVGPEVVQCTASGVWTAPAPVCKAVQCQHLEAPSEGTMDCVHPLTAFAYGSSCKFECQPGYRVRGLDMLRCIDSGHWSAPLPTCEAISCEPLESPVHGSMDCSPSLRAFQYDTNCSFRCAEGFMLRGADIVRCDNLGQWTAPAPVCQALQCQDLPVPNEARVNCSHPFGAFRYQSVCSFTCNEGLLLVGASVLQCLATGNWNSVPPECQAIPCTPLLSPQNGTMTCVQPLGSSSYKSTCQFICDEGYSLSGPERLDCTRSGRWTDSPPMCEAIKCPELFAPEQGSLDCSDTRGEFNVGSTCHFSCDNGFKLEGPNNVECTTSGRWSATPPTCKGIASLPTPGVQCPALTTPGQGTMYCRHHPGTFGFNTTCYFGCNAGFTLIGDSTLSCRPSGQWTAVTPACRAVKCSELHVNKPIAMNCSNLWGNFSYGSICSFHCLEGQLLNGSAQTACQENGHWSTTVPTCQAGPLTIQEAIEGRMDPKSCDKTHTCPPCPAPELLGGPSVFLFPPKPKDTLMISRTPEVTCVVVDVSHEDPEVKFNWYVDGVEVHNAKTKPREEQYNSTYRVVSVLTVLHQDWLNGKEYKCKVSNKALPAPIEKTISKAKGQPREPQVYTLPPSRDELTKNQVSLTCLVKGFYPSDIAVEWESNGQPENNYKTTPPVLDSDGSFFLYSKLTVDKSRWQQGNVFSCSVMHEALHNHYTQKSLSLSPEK

- IC50 (human P-selectin/IgG-Fc): 7 µM
Molecule: H-DVEWVDVSY-OH [Pstar, H2N-DVEWVDVSY-COOH]

- IC50 [1]: 0.00078 µM
B1: P100 liposomes: liposomes carrying 100 DSPE-PEG3400-(125I)-Pstar conjugates per liposome (other)
peptide: DVEWVDVSY
modifications: not fully specified; also: 125I label (ICl method)
notes: About 70 nm EYPC/cholesterol liposome; The peptide-PEG-lipid conjugate is anchored in its surface together with DSPE-PEG2000 (5 mole % in total); also called LP100

- IC50 [1]: 0.00034 µM
- relative transfection (glucocorticoid responsive element-driven Firefly luciferase, corrected by Renilla luciferase) in CHO-P cells [2]: 5 fold
B2: P500 liposomes: liposomes carrying 500 DSPE-PEG3400-(125I)-Pstar conjugates per liposome (other)
peptide: DVEWVDVSY
modifications: not fully specified; also: 125I label (ICl method)
notes: About 70 nm EYPC/cholesterol liposome; The peptide-PEG-lipid conjugate is anchored in its surface together with DSPE-PEG2000 (5 mole % in total); also called LP500

- IC50 [3]: 7 µM
B3: human P-selectin binding peptide H2N-…-COOH (Pstar) (peptide)
peptide: DVEWVDVSY
modifications: not checked
